# Test results as given in patent publication US12201676B2, “Composition comprising diamine oxidase for use in the treatment or prevention of fibromyalgia or chronic fatigue syndrome” (DR HEALTHCARE ESPAÑA, S.L., priority 2011, dated 2025).
# B1: diamine oxidase (protein, UniProt P19801 20-751, looked up)
# Diamine oxidase …: EPSPGTLPRKAGVFSDLSNQELKAVHSFLWSKKELRLQPSSTTTMAKNTVFLIEMLLPKKYHVLRFLDKGERHPVREARAVIFFGDQEHPNVTEFAVGPLPGPCYMRALSPRPGYQSSWASRPISTAEYALLYHTLQEATKPLHQFFLNTTGFSFQDCHDRCLAFTDVAPRGVASGQRRSWLIIQRYVEGYFLHPTGLELLVDHGSTDAGHWAVEQVWYNGKFYGSPEELARKYADGEVDVVVLEDPLPGGKGHDSTEEPPLFSSHKPRGDFPSPIHVSGPRLVQPHGPRFRLEGNAVLYGGWSFAFRLRSSSGLQVLNVHFGGERIAYEVSVQEAVALYGGHTPAGMQTKYLDVGWGLGSVTHELAPGIDCPETATFLDTFHYYDADDPVHYPRALCLFEMPTGVPLRRHFNSNFKGGFNFYAGLKGQVLVLRTTSTVYNYDYIWDFIFYPNGVMEAKMHATGYVHATFYTPEGLRHGTRLHTHLIGNIHTHLVHYRVDLDVAGTKNSFQTLQMKLENITNPWSPRHRVVQPTLEQTQYSWERQAAFRFKRKLPKYLLFTSPQENPWGHKRTYRLQIHSMADQVLPPGWQEEQAITWARYPLAVTKYRESELCSSSIYHQNDPWHPPVVFEQFLHNNENIENEDLVAWVTVGFLHIPHSEDIPNTATPGNSVGFLLRPFNFFPEDPSLASRDTVIVWPRDNGPNYVQRWIPEDRDCSMPPPFSYNGTYRPV
# notes: Enzyme diamine oxidase
# What was measured:
# [1] = system: subjects diagnosed with chronic fatigue syndrome and with DAO deficit; test: Efficacy of DAO compositions in chronic fatigue syndrome, grades of improvement on the CLINIC scale; format: in vivo, human; details: chronic fatigue syndrome grades II, III and IV with DAO deficit, 4 mg DAO twice a day, count of 23 subjects
# Procedure: Oral compositions containing DAO of the present invention were tested in a total of 46 subjects diagnosed with chronic fatigue syndrome, as out-patients.
# To evaluate the degree of affectation of chronic fatigue syndrome in candidate study subjects, the quality of life of these subjects was evaluated using a simple scale of 4 successive grades (I, II, III and IV), with criteria used in the clinic. This scale is used in the Chronic Fatigue Syndrome (CFS) Functional Unit in the Hospital Clinic.
# The CLINIC scale consists of dividing the patients with chronic fatigue syndrome into four different grades of functional affectation depending on the effect of their fatigue on quality of life:
# GRADE I: the patient is sometimes or occasionally fatigued, without significant limitation (<50%) of work or daily life activities.
# GRADE II: persistent presence of fatigue, oscillating but without improvement, with marked effect (>50%) on work and also daily life activities.
# GRADE IV: extreme fatigue that requires the help of other people for basic personal activities and that makes autonomy and the activities of daily life impossible.
# Improvement is evaluated when the patient passes from a higher to a lower grade in terms of the number of improvement grades.
# histamine level in blood = test: Histamine level in blood of chronic fatigue syndrome subjects; format: in vivo, human; details: 4 mg DAO twice a day
molecule,measurement,setting,value
B1,Number of grades of improvement: 1 (subjects),[1],16 of 23
same,Number of grades of improvement: 2 (subjects),[1],4 of 23
same,Histamine level in blood,histamine level in blood,2-20 micrograms/0.1 L
